According to patent US20160115241A1 (Amgen, published 2016):
Values belong to the binder of their own block, whether it stands above or below them.

Legend:
Assay in all cases: cell-based or functional assay
human mesothelin (MSLN) = human mesothelin (MSLN) (human, UniProt Q13421 296-598)
[1] = biological target: T1, folate receptor 1 (FOLR1) (human, UniProt P15328 25-234)
[2] = biological target: T1, folate receptor 1 (FOLR1); remark: listed apart in the source

T1 sequence (P15328 25-234): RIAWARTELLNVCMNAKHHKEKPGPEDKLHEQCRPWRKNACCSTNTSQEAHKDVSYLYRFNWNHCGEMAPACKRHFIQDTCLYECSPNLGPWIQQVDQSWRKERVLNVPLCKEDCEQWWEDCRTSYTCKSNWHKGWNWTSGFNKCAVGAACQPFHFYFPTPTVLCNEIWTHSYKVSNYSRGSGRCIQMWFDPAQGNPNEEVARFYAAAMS
Chain of human mesothelin (MSLN) (Q13421 other isoform, or with tags, fused parts or gaps limits assumed): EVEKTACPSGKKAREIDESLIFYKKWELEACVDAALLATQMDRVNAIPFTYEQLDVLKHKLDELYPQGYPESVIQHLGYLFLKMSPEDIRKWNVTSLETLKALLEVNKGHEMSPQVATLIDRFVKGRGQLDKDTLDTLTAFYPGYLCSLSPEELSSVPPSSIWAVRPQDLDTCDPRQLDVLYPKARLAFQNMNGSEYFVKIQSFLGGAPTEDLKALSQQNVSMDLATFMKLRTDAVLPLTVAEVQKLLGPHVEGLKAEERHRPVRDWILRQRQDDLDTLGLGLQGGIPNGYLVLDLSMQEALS

B1: P73352.3 (anti-MSLN/CD3ε heterodimeric bispecific antibody with Fc region, without CH1 and CL) (bispecific antibody)
chain 1: EVQLVESGGGLVKPGVSLRLSCAASGFTFSRYGMNWVRQAPGKGLEWVSSISSSGTYIKYADSVKGRFTISRDNAKNSLNLQMNSLRAEDTAVYYCARDRDRYPLDYWGQGTLVTVSSGGGGSGGGGSDIQMTQSPSSLSASVGDRVTITCRASQSINNYLNWYQQKPGKAPTLLIYAASSLQSGVPSRFSGSRSGTDFTLTISSLQPEDFAAYFCQQTYSNPTFGQGTKVEVKRAAAEPKSSDKTHTCPPCPAPELLGGPSVFLFPPKPKDTLMISRTPEVTCVVVNVSHEDPEVKFNWYVDGVEVHNAKTKPREEQYNSTYRVVSVLTVLHQDWLNGKEYKCKVSNKALPAPIEKTISKAKGQPREPQVYTLPPSREEMTKNQVSLTCLVKGFYPSDIAVEWESNGQPENNYDTTPPVLDSDGSFFLYSDLTVDKSRWQQGNVFSCSVMHEALHNHYTQKSLSLSPGK
chain 2: QVQLQESGPGLVKPSQTLSLTCTVSGGSINNNNYYWTWIRQHPGKGLEWIGYIYYSGSTFYNPSLKSRVTISVDTSKTQFSLKLSSVTAADTAVYYCAREDTMTGLDVWGQGTLVTVSSGGGGSGGGGSSSYELTQPPSVSVSPGQTARITCSGDALPKKYAYWYQQKSGQAPVLVIYEATKRPSGIPERFSGSSSGTMATLTLSGAQVEDEADYYCYSTDSTNYHWVFGGGTKLTVLGAAAEPKSSDKTHTCPPCPAPELLGGPSVFLFPPKPKDTLMISRTPEVTCVVVDVSHEDPEVKFNWYVDGVEVHNAKTKPREEQYNSTYRVVSVLTVLHQDWLNGKEYKCKVSNKQLPAPIEKTISKAKGQPREPQVYTLPPSRKEMTKNQVSLTCLVKGFYPSDIAVEWESNGQPENNYKTTPPVLKSDGSFFLYSKLTVDKSRWQQGNVFSCSVMHEALHNHYTQKSLSLSPGKAAAHHHHHH
- human TDCC EC50, killing of Ovcar-8 cells (human mesothelin (MSLN)): < 1 pM

- EC50 of specific lysis, Cal-51 cells (printed Cal-61) with human T cells [1]: 1.21 pM
- EC50 of specific lysis, T47D cells with human T cells [1]: 1.26 pM
- EC50 (pM) for IFN-γ release by T cells in presence of T47D cells [2]: 27.1 pM
- EC50 (pM) for IL-2 release by T cells in presence of T47D cells [2]: 20.3 pM
- EC50 (pM) for IL-10 release by T cells in presence of T47D cells [2]: 28.3 pM
- EC50 (pM) for IL-13 release by T cells in presence of T47D cells [2]: 27.8 pM
- EC50 (pM) for TNF-α release by T cells in presence of T47D cells [2]: 12.5 pM
B2: P136795.3 (anti-FOLR1/CD3ε heterodimeric bispecific antibody) (bispecific antibody)
chain 1: EVQLVESGGGLVQPGGSLKLSCAASGFTFNSYAMNWVRQAPGKGLEWVARIRSKYNNYATYYADSVKGRFTISRDDSKNTAYLQMNNLKTEDTAVYYCVRHGNFGNSYVSWWAYWGQGTLVTVSSGGGGSGGGGSQSVLTQPPSVSEAPRQRVTISCSGSSSNIGNNAVNWYQQLPGKAPKLLIYYDDMLSSGVSDRFSGSKSGTSASLAISGLQSEDEADYYCAAWDDSLNGVVFGGGTKLTVLASTKGPSVFPLAPCSRSTSESTAALGCLVKDYFPEPVTVSWNSGALTSGVHTFPAVLQSSGLYSLSSVVTVPSSNFGTQTYTCNVDHKPSNTKVDKTVGGGGSAAAEPKSSDKTHTCPPCPAPEAAGGPSVFLFPPKPKDTLMISRTPEVTCVVVDVSHEDPEVKFNWYVDGVEVHNAKTKPREEQYNSTYRVVSVLTVLHQDWLNGKEYKCKVSNKALPAPIEKTISKAKGQPREPQVYTLPPSREEMTKNQVSLTCLVKGFYPSDIAVEWESNGQPENNYDTTPPVLDSDGSFFLYSDLTVDKSRWQQGNVFSCSVMHEALHNHYTQKSLSLSPGK
chain 2: not shown

B3: P73356.3 (anti-MSLN/CD3ε heterodimeric bispecific antibody with Fc region) (bispecific antibody, human IgG1)
chain 1: QVQLQESGPGLVKPSQTLSLTCTVSGGSINNNNYYWTWIRQHPGKGLEWIGYIYYSGSTFYNPSLKSRVTISVDTSKTQFSLKLSSVTAADTAVYYCAREDTMTGLDVWGQGTLVTVSSGGGGSGGGGSSSYELTQPPSVSVSPGQTARITCSGDALPKKYAYWYQQKSGQAPVLVIYEATKRPSGIPERFSGSSSGTMATLTLSGAQVEDEADYYCYSTDSTNYHWVFGGGTKLTVLGASTKGPSVFPLAPCSRSTSESTAALGCLVKDYFPEPVTVSWNSGALTSGVHTFPAVLQSSGLYSLSSVVTVPSSNFGTQTYTCNVDHKPSNTKVDKTVAAAEPKSSDKTHTCPPCPAPELLGGPSVFLFPPKPKDTLMISRTPEVTCVVVDVSHEDPEVKFNWYVDGVEVHNAKTKPREEQYNSTYRVVSVLTVLHQDWLNGKEYKCKVSNKQLPAPIEKTISKAKGQPREPQVYTLPPSRKEMTKNQVSLTCLVKGFYPSDIAVEWESNGQPENNYKTTPPVLKSDGSFFLYSKLTVDKSRWQQGNVFSCSVMHEALHNHYTQKSLSLSPGKAAAHHHHHH
chain 2: EVQLVESGGGLVKPGVSLRLSCAASGFTFSRYGMNWVRQAPGKGLEWVSSISSSGTYIKYADSVKGRFTISRDNAKNSLNLQMNSLRAEDTAVYYCARDRDRYPLDYWGQGTLVTVSSGGGGSGGGGSDIQMTQSPSSLSASVGDRVTITCRASQSINNYLNWYQQKPGKAPTLLIYAASSLQSGVPSRFSGSRSGTDFTLTISSLQPEDFAAYFCQQTYSNPTFGQGTKVEVKRTVAAPSVFIFPPSDEQLKSGTASVVCLLNNFYPREAKVQWKVDNALQSGNSQESVTEQDSKDSTYSLSSTLTLSKADYEKHKVYACEVTHQGLSSPVTKSFNRGECAAAEPKSSDKTHTCPPCPAPELLGGPSVFLFPPKPKDTLMISRTPEVTCVVVAVSHEDPEVKFNWYVDGVEVHNAKTKPREEQYNSTYRVVSVLTVLHQDWLNGKEYKCKVSNKALPAPIEKTISKAKGQPREPQVYTLPPSREEMTKNQVSLTCLVKGFYPSDIAVEWESNGQPENNYDTTPPVLDSDGSFFLYSDLTVDKSRWQQGNVFSCSVMHEALHNHYTQKSLSLSPGK
- human TDCC EC50, killing of Ovcar-8 cells (human mesothelin (MSLN)): < 1 pM
